Results from the Human Domainome abundance scans (Beltran et al. 2025).

B1: Peroxisome proliferator-activated receptor delta, residues 71 to 145; numbered along this chain, Q03181 (parent)
chain: NMECRVCGDKASGFHYGVHACEGCKGFFRRTIRMKLEYEKCERSCKIQKKNRNKCQYCRFQKCLALGMSHNAIRF

Variants of: B1
Assay: abundance fitness (aPCA) (normalised: wild type 0, dead -1); higher = more abundant; growth selection in yeast, the domain comes from the species named
Conditions: Homo sapiens

Abundance fitness: each site, then its substitutions
R59: N -0.704
F60: D -0.633, S -0.557, H -0.528, C -0.84, A -0.941, P -0.802, T -0.549, Q -1.04, I -0.399, L -0.027, V -0.622, Y -0.223, E -1.03, M -0.073, W -0.003, R -0.798, K -0.742
K50: V -0.129, T -0.018, Y -0.295, P -0.089, R -0.06, L -0.069, F 0.07, N 0.147, M 0.034, E 0.111, C -0.164, S -0.046, I 0.132, W -0.056, Q 0.077, A 0.06, D 0.094
R52: S -0.022, L -0.087, M -0.078, D 0.075, Q -0.03, P 0.128, Y 0.012, W -0.286, K 0.207, E -0.037, T -0.012, H -0.307, F -0.155, C -0.241, V 0.07, I 0.012, N -0.084
N53: F -0.083, E 0.123, S -0.005, A -0.086, M -0.067, L -0.217, W -0.127, T -0.112, Y -0.249, H -0.152, I -0.051, Q -0.152, C -0.274, G -0.033, P -0.468, K -0.104, R -0.185, D -0.08
Q56: R -0.227, K -0.214, S 0.008, C 0.005, F -0.079, D 0.189, W -0.341, T -0.321, G 0.002, A 0.074, M -0.066, Y -0.116, L -0.031, E 0.077, P -0.025, N -0.145, I -0.599
A65: N -0.026, E -0.003, L -0.098, K -0.073, F -0.19, D 0.092, G -0.185, I -0.162, H -0.288, C -0.295
S44: Y 0.061
C45: N -0.835, K -0.927, S -0.743, F -0.647, D -1.01, Y -0.374, Q -0.884, P -0.876, E -0.838, R -0.768, G -0.787, W -0.864, I -0.842, T -1, L -0.766, M -0.548, H -0.218, V -0.84
K54: F 0.065, I -0.031, Q -0.012, D -0.02, P -0.037, S -0.079, M 0.052, V -0.037, H -0.059, A 0.009, L -0.046, T -0.017, E 0.122, W -0.036, Y 0.17
Y57: I -0.919, C -0.305, K -0.507, V -0.675, A -0.355, W -0.125, F -0.186, M -0.867, D -0.335, L -0.765, E -0.601, H -0.177, S -0.35, P -0.961, G -0.746, N -0.946, Q -0.862, R -0.671, T -0.77
C58: W -0.723, G -0.822, K -0.825, E -0.925, Q -0.848, P -1.04, A -0.688, F -1, D -0.719, M -0.63, R -0.771, N -1.09, V -0.944, T -0.957, Y -0.432, I -0.82, L -0.769
